In one experiment the target is Gal-3 CRD (trGal-3) (Homo sapiens, UniProt P17931). In words: hydrogen-deuterium exchange mass spectrometry. Type of experiment: binding. The following applies: absence vs presence of lactose; canonical site.
For experiment [1], the target named is Gal-3–8S–Gal-1 (covalently connected heterodimer, Gal-3 CRD, 33-aa Gal-8 linker, Gal-1 CRD) (human). In words: SAXS.
Experiment [2] has the same target. Kind of experiment: SEC. Background: SEC sorts molecules by how far they enter the pores of the column.

Sequence of Gal-3 CRD (trGal-3) (P17931 108-250 limits assumed): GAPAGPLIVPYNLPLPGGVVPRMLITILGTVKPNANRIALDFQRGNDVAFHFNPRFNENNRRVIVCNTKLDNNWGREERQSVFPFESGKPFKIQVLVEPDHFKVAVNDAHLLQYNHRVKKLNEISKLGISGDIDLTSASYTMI

Regarding `OC[C@H]1O[C@@H](O[C@H]2[C@H](O)[C@@H](O)C(O)O[C@@H]2CO)[C@H](O)[C@@H](O)[C@H]1O` (stereo partly drawn) [Lac], at Gal-3 CRD (trGal-3), the “hydrogen-deuterium exchange mass spectrometry” value is on record as “significantly decreased deuterium uptake was found in the region of the canonical binding site”.
With “Gal-3–8S–Gal-1 (covalently connected heterodimer, Gal-3 CRD, 33-aa Gal-8 linker, Gal-1 CRD)”, the stoichiometry N in experiment [1] and in experiment [2] was 2 in each case.

As a reminder, the stoichiometry N is a count of units in the complex or per binding partner.

Values taken from PMC6386680 (Proceedings of the National Academy of Sciences of the …, 2019).
